Reference: article PMC10643139

What was measured:
Assay in all cases: NanoBRET
[1] = target: Halo-SSX-C^E184* (SSX-C mutant lacking the last five amino acids); settings: live HEK293T cells; mean ± S.E.M of n = 3 biological replicates; parent: est. 40; read off a plot
[2] = target: Halo-SSX-C (HaloTag fused to the SSX1 C-terminal region present in SS18-SSX1); settings: live HEK293T cells; mean ± S.E.M of n = 3 biological replicates; parent: est. 72; read off a plot
[3] = target: Halo-SSX-C^ΔRD (SSX-C with a deletion of the SSXRD); settings: live HEK293T cells; mean ± S.E.M of n = 3 biological replicates; parent: est. 19; read off a plot

histone H2A fused to NanoLuc luciferase (NLuc-H2A) (from UniProt P0C0S8) K118R; K119R
response [1]: 36 mBU
response [2]: 42 mBU
response [3]: 16 mBU
